The values that follow come from the Human Domainome abundance scans (Beltran et al. 2025).

The chains are these.
B1: Chromodomain-helicase-DNA-binding protein 7, residues 2564 to 2605; numbered along this chain, Q9P2D1 (parent)
chain: DPDTRIPVINLEDGTRLVGEDAPKNKDLVEWLKLHPTYTVDM

± gives the uncertainty stated by the source.

Variants of B1 are the subject of the series. In words: abundance fitness (aPCA) (normalised: wild type 0, dead -1); higher = more abundant; growth selection in yeast, the domain comes from the species named. As to conditions: Homo sapiens.
Regarding K33H, the abundance fitness was -0.22 ± 0.46. Consider K33E, for which the abundance fitness was -0.04 ± 0.074. As for K33N, the abundance fitness was -0.095 ± 0.078. Then K33S, with -0.01 ± 0.055. Then K33D, with -0.01 ± 0.13. Then L28N, with -0.524 ± 0.1; and L28M, with -0.321 ± 0.06; and L28W, with -0.827 ± 0.079. Consider L28H, for which the abundance fitness was -0.134 ± 0.11. Then L28V, with -0.185 ± 0.048; and L28I, with -0.129 ± 0.068; and L34C, with -0.002 ± 0.06. Then L34K, with -0.029 ± 0.39; and D1E, with -1.19 ± 0.23; and P36H, with -0.492 ± 0.13. On to P36I, for which the abundance fitness is -0.65 ± 0.078.

As to T37N, the abundance fitness was -0.059 ± 0.072. Then E30W, with -0.529 ± 0.11; and E30K, with -0.333 ± 0.31. Then R16G, with -0.4 ± 0.053; and R16M, with 0.502 ± 0.24; and R16L, with -0.077 ± 0.39. Then R16C, with 0.154 ± 0.069; and R16Q, with -0.23 ± 0.43. On to R16A, for which the abundance fitness was -0.039 ± 0.067.

As for R16H, the abundance fitness stood at 0.071 ± 0.077. On to L17C, for which the abundance fitness is -0.272 ± 0.051. Then L17P, with -1.01 ± 0.27; and L17Y, with -0.217 ± 0.063. Then L17M, with 0.151 ± 0.073. Then L17Q, with -0.124 ± 0.086; and H35M, with -0.469 ± 0.088.

As for H35V, the abundance fitness is -0.751 ± 0.062. Regarding H35D, the abundance fitness was -0.547 ± 0.1. Then H35W, with -0.764 ± 0.092. Then H35E, with -0.615 ± 0.093; and H35N, with -0.064 ± 0.077; and H35K, with -0.546 ± 0.14. On to H35L, for which the abundance fitness is -0.866 ± 0.08. With Y38A, the abundance fitness was -0.447 ± 0.082. Then Y38K, with -0.321 ± 0.11. Then Y38T, with -0.331 ± 0.079; and Y38H, with -0.216 ± 0.061; and P23S, with -0.79 ± 0.06. Then P23M, with -0.654 ± 0.25; and P23V, with -0.658 ± 0.057. As for P23A, the abundance fitness is -1.35 ± 0.21. Then P23E, with -0.684 ± 0.14; and P7M, with -0.297 ± 0.12; and P7C, with -0.347 ± 0.2.

Turning to P7Q, the abundance fitness is -0.691 ± 0.44. Then P7V, with -0.238 ± 0.12; and V8C, with -0.577 ± 0.27. Then V8I, with -0.433 ± 0.45. As to V8F, the abundance fitness is -0.869 ± 0.089. Regarding V8S, the abundance fitness is -0.644 ± 0.2. Turning to V8G, the abundance fitness is -0.66 ± 0.079. Then V8L, with -0.481 ± 0.1; and V8W, with -0.794 ± 0.15. Then V8E, with -0.516 ± 0.11; and T15L, with -0.055 ± 0.083; and T15N, with 0.117 ± 0.07. Then G14C, with -0.226 ± 0.22. Consider G14D, for which the abundance fitness was -0.146 ± 0.14.

On to G14R, for which the abundance fitness is -0.168 ± 0.074. Then G14E, with -0.012 ± 0.09. R5N: the abundance fitness is -0.349 ± 0.081. R5L: the abundance fitness was -0.844 ± 0.26.

Consider R5W, for which the abundance fitness is -0.906 ± 0.2. Take R5C: the abundance fitness was -0.27 ± 0.23. Then R5I, with -0.39 ± 0.14; and W31L, with -0.492 ± 0.07. Then W31T, with -0.398 ± 0.16; and N25L, with -0.252 ± 0.077; and N25R, with -0.1 ± 0.07.

For N25G, the abundance fitness was -0.157 ± 0.046. For the variant N25I, the abundance fitness was -0.326 ± 0.095. Take N25K: the abundance fitness was found to be 0.095 ± 0.067.

As for N10M, the abundance fitness was -0.598 ± 0.074. Take N10G: the abundance fitness is -0.388 ± 0.061. For the variant N10E, the abundance fitness was -0.786 ± 0.41. With N10Y, the abundance fitness was -0.989 ± 0.18. Then N10T, with -0.466 ± 0.2.

For N10A, the abundance fitness is -0.598 ± 0.081. Then N10C, with -0.054 ± 0.059; and K26G, with -0.208 ± 0.053; and K26N, with -0.276 ± 0.069. Then K26H, with 0.203 ± 0.48.

In the case of I9E, the abundance fitness is -0.088 ± 0.21. Then I9V, with 0.04 ± 0.053. Then L32D, with -0.332 ± 0.12; and V40L, with -0.381 ± 0.048. Then V18C, with 0.074 ± 0.076; and V18H, with -0.047 ± 0.069. For the variant V18Y, the abundance fitness is -0.065 ± 0.078.

On to V18P, for which the abundance fitness was -0.372 ± 0.11. Then V18E, with 0.039 ± 0.068.

For the variant V18L, the abundance fitness is -0.131 ± 0.071.

For the variant V18T, the abundance fitness came to 0.118 ± 0.095. Then M42T, with 0.142 ± 0.083; and M42V, with -0.065 ± 0.061. Then M42P, with -0.569 ± 0.3; and M42Q, with 0.108 ± 0.12. Then M42N, with 0.025 ± 0.059; and G19W, with -0.638 ± 0.082. Regarding G19R, the abundance fitness was -0.59 ± 0.1. Then G19N, with -0.264 ± 0.16. Regarding G19K, the abundance fitness is -0.262 ± 0.15. Then G19Y, with -0.45 ± 0.12; and G19S, with -0.468 ± 0.062. Then G19T, with -0.741 ± 0.08; and G19I, with -0.644 ± 0.075; and A22L, with -0.539 ± 0.071. Then A22T, with -0.527 ± 0.082; and A22I, with -0.483 ± 0.076. Consider A22D, for which the abundance fitness is -0.565 ± 0.081.

Consider A22M, for which the abundance fitness is -0.673 ± 0.14. Then D3I, with -0.54 ± 0.094.

On to D27E, for which the abundance fitness is -0.23 ± 0.1. Then D27A, with -0.4 ± 0.069; and V29N, with 0.126 ± 0.053; and V29T, with 0.169 ± 0.14.

On to V29F, for which the abundance fitness is -0.168 ± 0.069. Take E20G: the abundance fitness is -0.196 ± 0.049. Then E20M, with -0.235 ± 0.15. Then E20H, with -0.498 ± 0.15; and E20D, with -0.059 ± 0.059.

For D21N, the abundance fitness was -0.054 ± 0.067. Then D21S, with -0.093 ± 0.076; and D21V, with -0.508 ± 0.063. For the variant D21L, the abundance fitness is -0.161 ± 0.075.

For the variant D13V, the abundance fitness was -0.421 ± 0.071. For the variant D13G, the abundance fitness is -0.268 ± 0.078. Then D41G, with -0.335 ± 0.051; and D41K, with -1.14 ± 0.35.

As to D41M, the abundance fitness is -0.531 ± 0.072.

Consider D41C, for which the abundance fitness is -0.531 ± 0.067. Then D41S, with -0.438 ± 0.057. For T39I, the abundance fitness is -0.158 ± 0.064. Then T39A, with -0.279 ± 0.1. On to T39C, for which the abundance fitness is -0.212 ± 0.064. Then T39K, with 0.076 ± 0.063. Then T39Q, with 0.006 ± 0.065.

Turning to T39P, the abundance fitness is -0.771 ± 0.11. Then T39G, with -0.295 ± 0.06.

With I6Y, the abundance fitness is -0.699 ± 0.21. Then I6D, with -0.201 ± 0.17. Regarding I6N, the abundance fitness was -0.419 ± 0.31.

For the variant K24H, the abundance fitness was -0.107 ± 0.097. Then K24Q, with -0.243 ± 0.071; and K24P, with -0.449 ± 0.079; and K24C, with -0.094 ± 0.061. In the case of K24D, the abundance fitness was -0.489 ± 0.072. Then K24F, with -0.444 ± 0.095; and K24M, with 0.274 ± 0.14. Consider K24T, for which the abundance fitness is -0.047 ± 0.062. As for L11S, the abundance fitness was 0.193 ± 0.053. Then L11E, with 0.058 ± 0.077; and L11R, with -0.104 ± 0.084.

As for L11G, the abundance fitness came to 0.094 ± 0.064. Then P2C, with 0.148 ± 0.07; and P2I, with -0.078 ± 0.1; and P2A, with -0.031 ± 0.059. Turning to P2L, the abundance fitness is -0.179 ± 0.06. Then P2Q, with 0.182 ± 0.059; and P2R, with 0.161 ± 0.071; and P2T, with 0.179 ± 0.072.
